Biological target: human ACE-2, Fc-tagged (human) (UniProt Q9BYF1)
Assay: BLI

Substance	Kd [nM]	koff [s⁻¹]	kon [M⁻¹ s⁻¹]
SARS-CoV-2 B.1.351 RBD (K417N_E484K_N501Y) (domain or fragment)	7.81	–	–
SARS-CoV-2 P.1 RBD (K417T_E484K_N501Y) (domain or fragment)	5.64	–	–
SARS-CoV-2 RBD E484K (domain or fragment)	15.6	0.00677	433000
SARS-CoV-2 RBD K417N (domain or fragment)	77	0.0162	–
SARS-CoV-2 RBD K417T (domain or fragment)	56.7	0.0129	–
SARS-CoV-2 receptor-binding domain (RBD) wild type (Wuhan strain) (domain or fragment)	23.9	0.00755	315000

Source: PMC8529273
